{
  "source": "patent US20170210823A1",
  "about": "(YEDA RESEARCH AND DEVELOPMENT, published 2017)",
  "binders": {"B1": {"name": "GS341 antibody (antibody, V domains shown)", "VH": "QVQLQQPGAELVRPGASVKLSCKASGYSFTNYWMSWVKQRPGQGLEWIGMIHPSDTDIRLHQKFKDKATLTVDKSSSTAYVQLSSPTSEDSAVYYCARGGQLGPWFAYWGQGTLVTVSA", "VL": "DIVMTQSPASLAVSLGQRATISCRASKSVSTSGYSYMHWYQQKPGQPPKLLIYLASNLESGVPARFSGSGSGTFTLNIHPVEEEDAATYYCQHSRELPWTFGGGTKLEIKR", "notes": "also called A341; ab341"}},
  "key": {"[1]": {"biological_target": "T1, catalytic domain of human LOXL2 (545-775) (human, UniProt Q9Y4K0 545-774)", "T1 construct": "No vector-derived tag is stated; also called recombinant catalytic domain of LOXL2; catalytic fragment", "experiment": "ELISA; plate coated with the catalytic domain of LOXL2, antibody titrated", "description": "(§1) A 96 well plate (Nunc) was coated with LOXL2 or BSA at 5 μg/ml. After the plate was coated, it was incubated with the antibody for 1 h at 25° C. The bound antibody was detected by peroxidase-conjugated antibody goat anti mouse according to standard procedures. The EC₅₀ was calculated from a four-parametric sigmoidal-curve fitting analysis."}, "[2]": {"biological_target": "T2, human LOXL2 (full length enzyme) (human, UniProt Q9Y4K0 26-774)", "T2 construct": "also called lysyl-oxidase like protein-2", "T2 sequence": "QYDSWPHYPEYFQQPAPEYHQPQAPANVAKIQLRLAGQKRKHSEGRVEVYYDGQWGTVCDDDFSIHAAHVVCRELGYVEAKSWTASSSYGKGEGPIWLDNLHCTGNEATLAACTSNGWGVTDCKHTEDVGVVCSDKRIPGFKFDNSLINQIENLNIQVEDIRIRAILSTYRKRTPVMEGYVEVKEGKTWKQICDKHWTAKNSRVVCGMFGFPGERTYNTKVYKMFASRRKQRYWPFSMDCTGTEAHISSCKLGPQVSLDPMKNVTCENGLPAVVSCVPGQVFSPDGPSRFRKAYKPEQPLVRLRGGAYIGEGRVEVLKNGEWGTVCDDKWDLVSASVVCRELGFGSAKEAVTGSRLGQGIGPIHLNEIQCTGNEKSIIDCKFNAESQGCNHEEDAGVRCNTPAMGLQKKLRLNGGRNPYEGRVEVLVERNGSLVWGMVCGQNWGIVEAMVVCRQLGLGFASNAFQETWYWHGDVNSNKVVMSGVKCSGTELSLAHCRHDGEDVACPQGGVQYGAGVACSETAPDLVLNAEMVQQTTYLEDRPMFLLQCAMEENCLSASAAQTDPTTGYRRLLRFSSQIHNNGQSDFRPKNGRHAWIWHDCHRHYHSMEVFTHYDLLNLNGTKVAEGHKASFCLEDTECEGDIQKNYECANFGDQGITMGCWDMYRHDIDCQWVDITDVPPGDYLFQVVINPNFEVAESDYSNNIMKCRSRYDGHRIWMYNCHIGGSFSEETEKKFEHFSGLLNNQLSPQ", "experiment": "microscale thermophoresis in solution; x axis printed as [LOXL2], nM; LOXL2 construct not specified on the sheet or in the legend"}, "[3]": {"biological_target": "T1, catalytic domain of human LOXL2 …", "experiment": "ELISA; plate coated with the catalytic domain of LOXL2, antibody titrated, detection with peroxidase-conjugated goat anti-mouse antibody", "description": "as §1"}},
  "data": [
    {"binder": "B1", "values": [
      {"measurement": "EC50 (read off the curve)", "setting": "[1]", "result": "~0.4", "unit": "nM"},
      {"measurement": "Kd", "setting": "[2]", "result": 6.97, "unit": "nM"},
      {"measurement": "EC50", "setting": "[3]", "result": 0.35, "unit": "nM"}
    ]}
  ]
}
